# Measurements as given in ChEMBL document CHEMBL1157152, “Kinetic parameters and recognition of thymidine analogues with varying functional groups by thymidine phosphorylase” (Bioorg Med Chem, 2008).
# B1: Thymidine phosphorylase (Escherichia coli K-12), P07650 (protein)
# chain: MFLAQEIIRKKRDGHALSDEEIRFFINGIRDNTISEGQIAALAMTIFFHDMTMPERVSLTMAMRDSGTVLDWKSLHLNGPIVDKHSTGGVGDVTSLMLGPMVAACGGYIPMISGRGLGHTGGTLDKLESIPGFDIFPDDNRFREIIKDVGVAIIGQTSSLAPADKRFYATRDITATVDSIPLITASILAKKLAEGLDALVMDVKVGSGAFMPTYELSEALAEAIVGVANGAGVRTTALLTDMNQVLASSAGNAVEVREAVQFLTGEYRNPRLFDVTMALCVEMLISGKLAKDDAEARAKLQAVLDNGKAAEVFGRMVAAQKGPTDFVENYAKYLPTAMLTKAVYADTEGFVSEMDTRALGMAVVAMGGGRRQASDTIDYSVGFTDMARLGDQVDGQRPLAVIHAKDENNWQEAAKAVKAAIKLADKAPESTPTVYRRISE
# Experiments:
# [1] = substrate: Cc1cn([C@H]2CC[C@@H](CO)O2)c(=O)[nH]c1=O; experiment: (§1) Activity of Escherichia coli thymidine phosphorylase
# [2] = substrate: Cc1cn([C@H]2C[C@H](O)[C@@H](C)O2)c(=O)[nH]c1=O; experiment: as §1
# [3] = substrate: Cc1cn([C@H]2C[C@H](O)[C@@H](CO)O2)c(=O)[nH]c1=O; experiment: as §1
protein,measurement,setting,value
B1,Km,[1],32 mM
same,Vmax,[1],0.014 mM/min
same,Km,[2],10 mM
same,Vmax,[2],3.4 mM/min
same,Km,[3],2.5 mM
same,Vmax,[3],5.2 mM/min
